Measured values: patent US20240091260A1 (FRED HUTCHINSON CANCER CENTER, published 2024)

Experiments:
[1] = molecular target: T1, PRAME … (ALY) peptide in complex with HLA-A*0201 (HLA-A2) (human); assay: flow cytometry on THP-1 cells, against isotype control
T1 construct: whole, on cells; Naturally processed and presented on PRAME+/HLA-A2+ cells (THP-1, OCI-AML2, RS4;11 HLA-A2+, primary AML blasts, SK-N-SH); no recombinant complex was used; also called PRAME ALY/HLA-A2; PRAME/HLA-A2 complex
Experimental: (§1) Flow cytometry of xenograft cells. PE-conjugated Pr20 antibody was used to confirm PRAME expression on target cell lines and primary patient AML samples. Cell lines and primary samples were washed in 2% FBS in PBS, blocked with 20 ug/mL Fc receptor block (BD Pharmingen, catalog no. 564219) in PBS then stained with PE-conjugated anti-human Pr20 antibody and APC-conjugated HLA-A2 antibody for 20 minutes on ice. Labeled cells were washed with PBS and resuspended in 2% FBS/PBS prior to flow cytometric analysis.

[2] = molecular target: T1, PRAME … (ALY) peptide in complex with …; assay: flow cytometry on OCI-AML2 cells, against isotype control
Experimental: as §1

MFI (fold change to isotype control) [1]: 2.75 fold
MFI (fold change to isotype control) [2]: 5 fold
B1: Pr20 monoclonal antibody (antibody, V domains shown)
VH: QVQLVQSGAEVRKPGASVKVSCKASGGTFSSYAISWVRQAPGQGLEWMGRIIPILGIANYAQKFQGRVTITADKSTSTAYMELSSLRSEDTAVYYCARHYGQWWDYWGQGTLVTVSS
VL: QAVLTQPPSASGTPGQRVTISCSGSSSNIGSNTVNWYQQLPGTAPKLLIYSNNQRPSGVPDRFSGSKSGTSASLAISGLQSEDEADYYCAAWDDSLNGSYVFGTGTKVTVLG
notes: also called Pr20 mAb; Pr20 antibody
